From the domain aggregation screens of Martell et al. (2025)

Assay: soluble fraction after stress (log2 fold change); higher = more stays soluble; pooled small domains, quantitative proteomics
Settings: stress: pH 4
In short: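 Pooled custom libraries of small protein domains were stressed at pH 4 and then measured by high-throughput quantitative proteomics. The fold change in the amount of each domain that stays soluble after the acid stress serves as a measure of aggregation propensity. Fold changes are given on a log2 scale, and higher values mean more of the domain stayed soluble.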

Sequence	soluble fraction (log2)
HMIYQNVINLLKNRLNSSIYNIGDLLPSEKELAEHYDVSRNTLRKALKTLEEEGMIERRHGSGTYLRNK	0.0262
HMEAFAEAVASMLRKLQPEFAIDLVGPRELLVNGRRLDLENLYRMVNHEPVRGQEIVEHYLDQLFAG	-0.665
HMEDLDKIISAYLDENPQIVSDYGKGNKKAVNSAIGFVMKSTGGKYSSSDIVDAVRSMIVSISV	-0.254
HMSNYIVELSSSEKIDDIDNNNNLINSFFSKSDSQWEYKLVFKNKNEMDVFVKKISTNNKIISYKTSS	-0.106
HMGFAPEAAREEVAQLIGQRGRAVTVLRPSGQVEIAGRRFEATVEVGAVDAGDTIVVRGQTAFALLVEKAD	0.0812
HMANIAVTIPTGSSGDRIADILLQAGLIKDKQDFNQAVIAAGAEGKLRAGYFVIPSNATPAEIISILT	-0.253
HMALTLDEARTQGRVGETFYGYLVALKTDAETEKLVNDINAERKASYQQLAKQNNVSVDDIAKLAGQKLV	-0.113
HMIKSEERIQNIKEYILEFQFTYHRTPTMAQIAEAVGTVKSNVYKYLSEMEERGILTRNKREIEINDTIQ	-0.588
HMDAAYVYVIGTRVNQRAGPSTSNAVMGVLSEGTRVETLRDEGQWTQIRSNFGTGWMSSSFLSSVAP	0.124
HMHTDDDGITEAFPHLRLLSLGEDILDLLEKSRFIRKLNNELVYYVVDFREQNSIDGRRYHPSIYHNL	-1.31
HMNPASVLDGLKITSFSPTRAIVAGPGGSRIVFDNEAVVLGGIEWDVHIQRNGIEFTSQGQTVLLLFDRS	-0.514
HMTINPFSTLAVRELEILHYLLNGHRTKEIATNLGLKMNTVSTIKSNIFEKVKADSFTHLLQLAHVHQIS	-0.0952
HMKNENSLLVSRLAEEKIINRAKLVLMEYLKLSEPQAHRYIEKQAMDLQISRAEVAARVLETYE	0.101
HMHLKRQEAINLGAYLLGAELRIHRLSLEELGSERIDEMLAAINYKTLDDLLADIGLGNRPARFVARQLG	-1.65
HMQDLVAVPALTGLTENDAINKAKANNLIAVVSEYKTENSVEPGKVLEQDPESSTEVKKGTIIKLVVS	0.16
HMRILDFPALKTEFDQLTKDLMAKYPEDGADRVRAIIETVLGPGKKVGALQPHQAELLAEVNTSLKANL	-0.0969
HMSNLNHSFQYKKNIGRKISLTYLGRDNESISKIYELIDSNDSGILVKNKNVEIFIHYEKIVSAKIKVS	-0.213
HMDEDTWKLYKRAYKKYYARYMKGNMSEAAFKAWGEQAAADRDAAIEQLRATTDAALSASIIQQLKEKLNR	0.22
HMDEETVALQKAIHSLPPKQQAVFNMRYYDEMSFREIADANETTESSAKANYHFAKAKIIEQMKR	0.166
HMRDADRYAFMQENVEDFAKDMRRKHMTYDVLYEEYIRRTDNPYGYTQFKAIVQEYEKNHDYK	0.253
HMTDLDVAVTMTVALEEAVNGATRRVRLPNGKELNVKIPAGVAAGQQIRLKGQGETAPGHRPGDVLITVNI	-0.626
HMDLRVKRTNKMIMEAFIHLVEQKGYDNITVQEIADEAMINRATFYAHFKDKQDLYDHIFKQAI	-1.33
HMGQELTMPDLKSMSRSNAEEKLKKMGLKLGAVFEENAKEPAGTVINQDPRSGSKITKGQTVDITVSLGEK	0.0104
HMFDPTDLPEKQLMVYEIIKSNNGINMTNIASLLGFNKTTVDNAIRALKKKEIVVFKGTNRSGGYFNT	0.193
HMIFEETVFKDIAFGPKNMGLSEAEIKRRVYETAENIGLSQELMERSPFELSGGQKRRVAIAGVMAMEP	-0.878
HMKKNNTTPIPKTLNYVNIKGLSNEAVERLNKHKPSTLGQASRLEGITPAATSLISIAIKKNQLLEKAES	0.123

Sequence	soluble fraction (log2)
HMLNIVTIFEEQFGRPLSPIELNIIKDWKESDYSDEMIVKALKEAVKSQVLNFRYVEGILNNWAKNG	-1.08
HMKTRYPNVYQDEKGKFFYQIFIGTDTNGRKKLKKGRRDALGHPFSSAYQASKEAKRVQALYANVS	-0.0451
HMGNQALSSVLSDIAGIGPVKTKELLRVYPDLDSLRQAPVEEVAKVKGIGRQLAQKIHDHFSSR	-0.0357
HMEVVRVEPGATVRDLGEALGVPPTRIIQILMGLGEMKTVTQTLSTEEIELVAEELGRRVEV	-0.248
HMTSLAEQAYRHIRDKLSNGAFVPGEQLVNRVLATEIGVSVIPVREAINRLATEGLVKHVPGSGAFVRQ	0.197
HMEVSLEDKMDYLTNYATTHKNFSFRNLLESSSGKIEVIVTFLAILELMKMGRINISQEHIFDDIIIESRI	-1.8
HMNRQTGTVKWFNDAKGFGFITPESGPDLFVHFRSIQGAGFKSLQEGQRVTFVAVQGQKGMQADQVQA	-0.429
HMWAVDFVLLDKDDQRIGNAVAYRDDRTKGMDEEVYRTVPEEELYASTGIQKQIFNSIYQLMAWKK	-1.25
HMKDYKTIFQELIQKKHKTSPIYKSYEYNDMFKAEVYVNDKSFADGIGKSKKEAETDAAKKALEKIEMA	0.0809
HMTGDNQTIGGGGFHHVAIRAHDFDASVKFYGETLGFREKIAWGEGDKRAIMMDTGDGNYIEIF	-0.0678
HMDASFTYSLETHPAGVLVRVDGLEYETPFSILLPQGVHRLEVAGEERFFYLSETTHQFLEID	-0.714
HMVLVLPGEMIHVQVIDEGKEMGQGVGYLDDGTMVVVENGLRHIGRAIDVQVTKVLQTNAGRMIFGQPIL	-0.952
HMEPERRHLEVPAEAEGERIDRFLASQLENLSRSRIQALIKAGYVRNRRGTIEDPGLRVKPGDAFVVDLPP	0.255
HMFYNSSDNAYKILEINKSATVDEIKAAYRKMAKKYHPDKVIHLGQEHQKGAEEKFRQVQEAYEELQKERG	0.297
HMGSTATVIASRLNMRASASTTGALLTKIPNGATVTVLGTTGAWSHIRYGSYTGYVMSQYLRING	-0.211
HMKSLVDLEISIVKKDMNYFVLPKINGEPLLMERISASEYKDFQLGKLSKEDIFQKHYPDYSEENIKNGRG	0.19
HMELEKIRPDLDGLEIMAILGISPSPIVGRAYQYLLDLRMDRGPLGPDAAKAELLNWWSLNQPK	-1.62
HMAPLRTQYVNVNYANAAEIKTLISGADKEVGSLLSERGSVVVDKRTNTLIIQDTQARLNDIGDLIEQLD	-0.52
HMVFKSAQEGLDFYSKQLNDVDATLGRIRRGEESGNGLYGSNRVKNLEEQRKKLDSFVTAYRNAVNAT	0.177
HMLDSGNPILPYKLSLLANVDIRTVRNAISAGELVAFKSEFDGEVYVENGSARRWLHGRRGFKPTLK	-0.772
HMDEPGAGYKWREDVLLRVMASHGIEESLRDDFVRHAVGFDNDDNMYLKKVEIENAAAAWVAN	-1.36
HMRESRLFQILYQLLTKKKVTAANLAKQFEVSVRTIYRDIDALSSSGIPIYASQGKNGGIQLDEDF	-0.999
HMLPGERFKVKIAQAGKEKKQGIGYLNDGTMVVIENGIEKVGEEVEAVVIKVIQSSAGKIIFSEVAK	0.0394
HMTVLPTENDAKALVGLNEDEAVKIIEGNGWTYRIGSRDGEQFMLTEDYSTSRLTLGIEKSIVVTATI	-0.56
HMKELVAGQTVRVHHSIGFGQTGTVTALNSLKTTLPNGLRTNTASILFQNNEKVVLPISNFDIIES	0.403
HMDTLRPLGRYQNVHLTKQELTALQSEFSDWSERIERLSSYMASTGRKYQNHAATIRLWAEKDK	0.161

Sequence	soluble fraction (log2)
HMTEISGIEKFLASGAINGIGPAMAKKIVAEFGEKTLEIIAKSPNELLKVPGIGKKTAEKISTSYLEQ	0.0637
HMDFTISDADFHRLVQFIQQNYGVALSKKRQLISSRLSHSLRELGYKDFRTFLEHLFSTRDPADLELVLNK	-0.399
HMQTTITITNTVTGQKAQFPPPFNPMSLSKIGVDETFEKEVFVDGVDTFGYGLDGYLTFYELKDFLRSYQ	-2
HMTKAILTANDVRNGDIVFWTADQRWSTSIDDAAIGYGKDDTDQLADAGKQAEAANTVVGAYLIALR	-1.14
HMAVTEVKTTAVVNMRSSDSEKADKLGKAQIGDTFRVLEQRANGWTKLTDGTQEFFIKSEYLEAIA	0.0485
HMAQQEMEIIPLRHRQVEQVMPTLRPLLEPGAALSGMNNQLILRASRKNREEIKQALAVIDT	0.121
HMSIGLEGFVGKLGISTSDLRPSGWGEFDAKKLFVVTEGEFVDRKEKIEILSVDGNRILVRKIS	-0.471
HMDTITMAGERYAVSDLEKVSGDIFEKAFGFEIDPKTADAKDVLPTMPKSDVDLFKKLSGIKP	-0.0953
HMTKQRSAIMNLLAERNTPLTAEEIGEAIAPSYPKLALSTVYRNLELFTNAGLLEKSFFQDGITRYSLTK	-0.242
HMKDPSFELMSVAESFYRSGNVDHAVYALEKYLEVYADGDYTDRAHDLLSQARKGLTYPHGYPPLQI	-1.33
HMLTLSGPEHAVVRALWPEPELDFDVLIRKTGLPSAQLMTLAMQLEMKKIIRRLPGRRLALMDDIRR	-0.716
HMKRTMVEAAMVAKLFNLTVRRIQQLTQDGVLTTELVDKKRRYDLLLTVQKYIAYLQEKVAK	≥ 0.43
HMETSLVIQIDGAVNSPGIYQVTPGTRIFEALELAGGVREDAQTEALNLALPVYDGQRISIPSSFA	-1.58
HMGQARQSAIRELGNDPTSGKKITVRSGRYGPYVTDGEVNASLRKGDDPQTIDLDRAIELLAARREKLG	-0.324
HMLTEEVEISLMDMTKPTQPATIKTTATIQKGATTVMPKQIKMPEGYEFYGNYKMDQPFELTMTFVVKKI	-0.0427
HMKAQTVPQFVGMTMTEAEEKASELGITLIEGAVVDSVEPKDTILTQDVDEGTEITGKMEIMVTISS	-0.352
HMQDEREEIAVEDVVGMPLWQARKVIADQGFRVLDDGAGDIVIAQMPSGGGKLIEGGQVMLYTYTD	-0.201
HMRQFEPVEGYNPYADKNELHGYEYWGAKFADSRSPEETAWIKQQIDDENEDRRFISEAGLA	-0.446
HMGGVSTDKPLNWDADGTSKLTQEQIDYLRSTYDLSDMSKQDYYDLMADLTNMNAISIKDVISQYVK	-0.462
HMIAALEGKQAMVLDQVSLHHGQVKLGGEVWTARPLNDQDVYEPGDRVTVMRIDGATAVVWRN	-0.0548
HMEDGEALARAVASLPGKYREVLFLKYSHGYSVDEIALILSMSKENVKKTIQRARKKLEQLLESE	-0.507
HMNYGDVIEGQIMHVDRDELLVDIGSKSEGIIPAREFSTLTDEERAALSVGDHVLVFVVQAENQEGQAV	0.0111
HMDVPTSSITEVKKSPMDVFAQARKAETGVYIFNREKIAGVMLTKEQYEALVEELNTLRDTL	-1.24
HMAISEAERARLQTKIKERNKMARWINTNLNPTSKIRNINPAETVRKLMTQDDADSLERSLDAFMEA	0.0822
